Data from IntAct's records for PubMed 31515488.

B1: Tuftelin-interacting protein 11 (Homo sapiens), Q9UBB9 (parent)
chain: MSLSHLYRDGEGRIDDDDDERENFEITDWDLQNEFNPNRQRHWQTKEEATYGVWAERDSDDERPSFGGKRARDYSAPVNFISAGLKKGAAEEAELEDSDDEEKPVKQDDFPKDFGPRKLKTGGNFKPSQKGFAGGTKSFMDFGSWERHTKGIGQKLLQKMGYVPGRGLGKNAQGIINPIEAKQRKGKGAVGAYGSERTTQSMQDFPVVDSEEEAEEEFQKELSQWRKDPSGSKKKPKYSYKTVEELKAKGRISKKLTAPQKELSQVKVIDMTGREQKVYYSYSQISHKHNVPDDGLPLQSQQLPQSGKEAKAPGFALPELEHNLQLLIDLTEQEIIQNDRQLQYERDMVVNLFHELEKMTEVLDHEERVISNLSKVLEMVEECERRMQPDCSNPLTLDECARIFETLQDKYYEEYRMSDRVDLAVAIVYPLMKEYFKEWDPLKDCTYGTEIISKWKSLLENDQLLSHGGQDLSADAFHRLIWEVWMPFVRNIVTQWQPRNCDPMVDFLDSWVHIIPVWILDNILDQLIFPKLQKEVENWNPLTDTVPIHSWIHPWLPLMQARLEPLYSPIRSKLSSALQKWHPSDSSAKLILQPWKDVFTPGSWEAFMVKNIVPKLGMCLGELVINPHQQHMDAFYWVIDWEGMISVSSLVGLLEKHFFPKWLQVLCSWLSNSPNYEEITKWYLGWKSMFSDQVLAHPSVKDKFNEALDIMNRAVSSNVGAYMQPGARENIAYLTHTERRKDFQYEAMQERREAENMAQRGIGVAASSVPMNFKDLIETKAEEHNIVFMPVIGKRHEGKQLYTFGRIVIYIDRGVVFVQGEKTWVPTSLQSLIDMAK
partner: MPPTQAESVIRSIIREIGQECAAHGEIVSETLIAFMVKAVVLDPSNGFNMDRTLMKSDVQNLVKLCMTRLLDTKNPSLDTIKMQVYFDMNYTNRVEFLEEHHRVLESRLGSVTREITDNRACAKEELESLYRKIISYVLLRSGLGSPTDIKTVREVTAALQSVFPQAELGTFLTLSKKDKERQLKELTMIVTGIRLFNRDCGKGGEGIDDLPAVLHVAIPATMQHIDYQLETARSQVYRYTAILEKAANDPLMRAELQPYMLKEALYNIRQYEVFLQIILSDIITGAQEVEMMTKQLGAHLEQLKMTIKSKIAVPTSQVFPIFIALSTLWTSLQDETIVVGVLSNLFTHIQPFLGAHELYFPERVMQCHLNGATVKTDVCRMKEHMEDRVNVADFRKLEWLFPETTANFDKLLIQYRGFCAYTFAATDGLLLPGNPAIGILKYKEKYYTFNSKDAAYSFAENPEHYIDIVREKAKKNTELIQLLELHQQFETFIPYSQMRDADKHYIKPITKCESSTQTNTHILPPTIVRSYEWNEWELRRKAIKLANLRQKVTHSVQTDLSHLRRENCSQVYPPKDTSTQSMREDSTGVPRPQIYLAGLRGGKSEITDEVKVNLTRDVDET
B2: Zinc finger protein 165 (Homo sapiens), P49910 (parent)
chain: MATEPKKAAAQNSPEDEGLLIVKIEEEEFIHGQDTCLQRSELLKQELCRQLFRQFCYQDSPGPREALSRLRELCCQWLKPEIHTKEQILELLVLEQFLTILPGDLQAWVHEHYPESGEEAVTILEDLERGTDEAVLQVQAHEHGQEIFQKKVSPPGPALNVKLQPVETKAHFDSSEPQLLWDCDNESENSRSMPKLEIFEKIESQRIISGRISGYISEASGESQDICKSAGRVKRQWEKESGESQRLSSAQDEGFGKILTHKNTVRGEIISHDGCERRLNLNSNEFTHQKSCKHGTCDQSFKWNSDFINHQIIYAGEKNHQYGKSFKSPKLAKHAAVFSGDKTHQCNECGKAFRHSSKLARHQRIHTGERCYECNECGKSFAESSDLTRHRRIHTGERPFGCKECGRAFNLNSHLIRHQRIHTREKPYECSECGKTFRVSSHLIRHFRIHTGEKPYECSECGRAFSQSSNLSQHQRIHMRENLLM
partner: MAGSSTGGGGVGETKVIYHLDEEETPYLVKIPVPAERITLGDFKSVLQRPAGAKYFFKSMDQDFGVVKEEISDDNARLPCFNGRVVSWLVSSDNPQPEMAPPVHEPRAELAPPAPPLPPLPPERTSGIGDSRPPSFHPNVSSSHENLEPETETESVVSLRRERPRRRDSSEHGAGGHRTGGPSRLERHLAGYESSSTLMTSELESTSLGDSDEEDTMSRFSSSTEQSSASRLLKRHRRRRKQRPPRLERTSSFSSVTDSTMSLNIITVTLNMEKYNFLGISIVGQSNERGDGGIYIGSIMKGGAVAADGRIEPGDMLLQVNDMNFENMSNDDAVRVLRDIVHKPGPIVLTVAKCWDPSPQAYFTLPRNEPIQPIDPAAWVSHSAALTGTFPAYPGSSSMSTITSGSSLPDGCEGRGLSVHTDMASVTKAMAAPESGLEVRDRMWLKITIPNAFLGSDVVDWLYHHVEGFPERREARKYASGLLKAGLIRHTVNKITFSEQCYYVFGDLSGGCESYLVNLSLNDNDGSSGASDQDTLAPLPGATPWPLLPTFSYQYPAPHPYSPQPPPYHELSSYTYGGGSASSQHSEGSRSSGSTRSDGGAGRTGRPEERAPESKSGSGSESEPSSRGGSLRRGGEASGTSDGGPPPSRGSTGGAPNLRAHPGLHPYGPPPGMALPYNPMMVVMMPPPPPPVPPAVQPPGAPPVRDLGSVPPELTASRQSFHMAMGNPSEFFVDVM
B3: Four and a half LIM domains protein 2 (Homo sapiens), Q14192 (parent)
chain: MTERFDCHHCNESLFGKKYILREESPYCVVCFETLFANTCEECGKPIGCDCKDLSYKDRHWHEACFHCSQCRNSLVDKPFAAKEDQLLCTDCYSNEYSSKCQECKKTIMPGTRKMEYKGSSWHETCFICHRCQQPIGTKSFIPKDNQNFCVPCYEKQHAMQCVQCKKPITTGGVTYREQPWHKECFVCTACRKQLSGQRFTARDDFAYCLNCFCDLYAKKCAGCTNPISGLGGTKYISFEERQWHNDCFNCKKCSLSLVGRGFLTERDDILCPDCGKDI
partner: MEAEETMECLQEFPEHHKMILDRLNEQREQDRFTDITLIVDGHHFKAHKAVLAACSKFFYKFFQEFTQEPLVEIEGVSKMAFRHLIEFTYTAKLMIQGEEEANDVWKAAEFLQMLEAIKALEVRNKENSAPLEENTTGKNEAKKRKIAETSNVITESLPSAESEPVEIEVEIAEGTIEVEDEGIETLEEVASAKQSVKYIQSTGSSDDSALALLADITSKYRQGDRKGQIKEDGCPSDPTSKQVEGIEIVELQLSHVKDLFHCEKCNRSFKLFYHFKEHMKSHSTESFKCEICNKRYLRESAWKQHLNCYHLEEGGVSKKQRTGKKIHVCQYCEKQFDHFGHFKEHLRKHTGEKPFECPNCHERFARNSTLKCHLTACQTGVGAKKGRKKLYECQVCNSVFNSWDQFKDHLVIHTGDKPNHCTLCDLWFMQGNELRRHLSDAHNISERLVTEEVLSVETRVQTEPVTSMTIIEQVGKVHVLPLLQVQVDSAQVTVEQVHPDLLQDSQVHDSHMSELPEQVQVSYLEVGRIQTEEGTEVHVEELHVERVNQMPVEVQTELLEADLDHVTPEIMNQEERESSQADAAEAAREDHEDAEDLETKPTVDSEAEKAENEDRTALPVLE

Variants of: B1
Settings: with cf206_human CFAP206, Q8IYR0
In the case of R8Q, the “effect of a mutation on the interaction” value is reported as “with no effect”.
With S688L the “effect of a mutation on the interaction” value was “with no effect”.

Variants of: B2
Settings: with dvl2_human DVL2, O14641
With N347Y the “effect of a mutation on the interaction” value was “with no effect”.
R69C was tested, and the “effect of a mutation on the interaction” value was “with no effect”.

Variants of: B3
Settings: with zn131_human ZNF131, P52739
With N95K the “effect of a mutation on the interaction” value was “with no effect”.
